# Data taken from the Human Domainome abundance scans (Beltran et al. 2025).
# ± gives the uncertainty stated by the source.
# B1: Syntaxin-binding protein 4, residues 493 to 538; numbered along this chain, Q6ZWJ1 (parent)
# chain: LDMDCLPYGWEEAYTADGIKYFINHVTQTTSWIHPVMSVLNLSRSE
# Variants of: B1
# Test: abundance fitness (aPCA) (normalised: wild type 0, dead -1); higher = more abundant; growth selection in yeast, the domain comes from the species named
# Conditions: Homo sapiens
row,Variant,abundance fitness
1,A13N,-0.774 ± 0.14
2,W10Q,-0.613 ± 0.11
3,E11T,-0.733 ± 0.1
4,L6F,-0.604 ± 0.17
5,T30L,-0.512 ± 0.096
6,T15V,-0.862 ± 0.094
7,H34W,-1.11 ± 0.15
8,L6G,-0.754 ± 0.087
9,L1F,-0.163 ± 0.17
10,G9Y,-0.826 ± 0.14
11,N41Q,-0.514 ± 0.14
12,N41S,-0.227 ± 0.09
13,V39G,0.352 ± 0.086
14,D4W,-0.499 ± 0.097
15,P35Q,-0.72 ± 0.14
16,Y8C,-0.425 ± 0.093
17,Y14E,-0.513 ± 0.11
18,E12H,-0.795 ± 0.17
19,A16E,-0.118 ± 0.15
20,E12T,-0.518 ± 0.1
21,T29G,-0.777 ± 0.24
22,K20F,-0.919 ± 0.17
23,D4S,-0.221 ± 0.082
24,L6K,-0.266 ± 0.11

row,Variant,abundance fitness
1,I33F,-0.549 ± 0.22
2,A13V,-0.686 ± 0.084
3,S38T,-0.75 ± 0.13
4,I33N,-0.243 ± 0.19
5,R44K,-0.162 ± 0.14
6,S43I,-0.606 ± 0.16
7,L40S,0.139 ± 0.085
8,E46V,-0.365 ± 0.19
9,Y8E,0.326 ± 0.084
10,L1Y,-0.198 ± 0.21
11,L40D,-0.471 ± 0.17
12,P35R,-0.88 ± 0.097
13,A13P,-0.922 ± 0.11
14,V26H,0.137 ± 0.14
15,A13L,-0.742 ± 0.091
16,L40P,0.067 ± 0.11
17,Y8A,0.198 ± 0.081
18,I23V,0.023 ± 0.098
19,I23E,-1.08 ± 0.18
20,V36E,0.44 ± 0.093
21,L6H,-0.844 ± 0.22
22,P35I,-0.82 ± 0.16
23,A13S,-0.5 ± 0.088
24,S45P,-0.127 ± 0.15

row,Variant,abundance fitness
1,S31H,-0.94 ± 0.18
2,I23S,-0.49 ± 0.1
3,S43H,-0.021 ± 0.25
4,S45L,-0.509 ± 0.11
5,G18D,-0.576 ± 0.11
6,P7E,-0.711 ± 0.098
7,T30P,-0.857 ± 0.17
8,V36P,-0.597 ± 0.12
9,Y21N,-0.731 ± 0.19
10,N41R,-0.493 ± 0.096
11,G9M,-0.865 ± 0.12
12,K20P,-0.141 ± 0.094
13,E12Y,-0.794 ± 0.18
14,G18I,-0.488 ± 0.22
15,N24D,-0.668 ± 0.21
16,N24H,-0.282 ± 0.14
17,N24P,-0.837 ± 0.17
18,S38L,-0.78 ± 0.11
19,A16C,-0.555 ± 0.096
20,T15N,-0.806 ± 0.14
21,D4C,-0.354 ± 0.11
22,T15R,-0.698 ± 0.077
23,V39C,-0.134 ± 0.16
24,W32P,-0.581 ± 0.14

row,Variant,abundance fitness
1,V36T,0.526 ± 0.095
2,M37V,-0.226 ± 0.1
3,N41M,-0.403 ± 0.11
4,W32M,-0.151 ± 0.12
5,L40I,-0.816 ± 0.16
6,D4T,-0.535 ± 0.11
7,T27S,-0.348 ± 0.1
8,H34F,-1.14 ± 0.31
9,E46G,0.23 ± 0.12
10,E12V,0.12 ± 0.08
11,Y21H,-1.05 ± 0.22
12,A16D,-0.029 ± 0.1
13,V39K,-0.205 ± 0.12
14,A16Q,-0.182 ± 0.12
15,T15S,-0.672 ± 0.085
16,I19Y,-0.034 ± 0.16
17,Q28L,-1 ± 0.13
18,T27N,-0.407 ± 0.2
19,Y14H,-0.575 ± 0.11
20,C5V,-0.155 ± 0.085
21,Q28E,-0.525 ± 0.12
22,D2N,-0.388 ± 0.094
23,W10L,-0.844 ± 0.092
24,Y14I,-0.856 ± 0.12

row,Variant,abundance fitness
1,I23W,-0.811 ± 0.12
2,W10A,-0.667 ± 0.087
3,Y21M,-1.03 ± 0.17
4,H25C,-0.824 ± 0.18
5,Q28D,-0.467 ± 0.13
6,H25T,0.033 ± 0.18
7,L40Q,0.046 ± 0.11
8,L1R,-0.874 ± 0.5
9,R44T,-0.285 ± 0.13
10,I33W,-0.743 ± 0.13
11,S43E,0.119 ± 0.11
12,V36K,0.746 ± 0.11
13,T27I,-0.814 ± 0.25
14,S43R,-0.17 ± 0.094
15,V26M,-0.29 ± 0.11
16,S45Y,-0.287 ± 0.13
17,S43Q,-0.732 ± 0.26
18,N41F,-1.02 ± 0.2
19,S45H,-0.438 ± 0.16
20,M3R,0.027 ± 0.076
21,N24G,-0.72 ± 0.092
22,I23D,-0.731 ± 0.28
23,F22D,-0.794 ± 0.22
24,S45V,-0.103 ± 0.11

row,Variant,abundance fitness
1,I33G,-0.199 ± 0.088
2,Q28R,-0.316 ± 0.086
3,P35K,-0.533 ± 0.15
4,F22G,-0.782 ± 0.09
5,K20Y,-0.783 ± 0.15
6,S31K,-0.471 ± 0.12
7,S43Y,-0.876 ± 0.24
8,W10G,-0.716 ± 0.078
9,T29A,-0.486 ± 0.15
10,N24T,-0.909 ± 0.18
11,W32T,-0.872 ± 0.15
12,I19G,-0.062 ± 0.073
13,P35E,-0.634 ± 0.15
14,D17N,-0.548 ± 0.12
15,K20S,-0.836 ± 0.1
16,V39R,-0.083 ± 0.086
17,T27K,-0.045 ± 0.13
18,S45R,-0.173 ± 0.11
19,D2P,-0.985 ± 0.16
20,E11G,-0.827 ± 0.082
21,K20G,-0.857 ± 0.087
22,P7W,-0.629 ± 0.099
23,K20H,-0.444 ± 0.18
24,D2K,-0.269 ± 0.14

row,Variant,abundance fitness
1,N24C,-0.798 ± 0.16
2,W32V,-0.787 ± 0.12
3,Y8K,0.109 ± 0.095
4,C5S,0.142 ± 0.081
5,H25G,-0.687 ± 0.091
6,H25W,-0.916 ± 0.14
7,Y8M,-0.292 ± 0.099
8,V39I,-0.599 ± 0.15
9,I19T,0.234 ± 0.094
10,W10P,-0.741 ± 0.1
11,N24Y,-0.638 ± 0.23
12,I19Q,0.7 ± 0.093
13,R44D,0.169 ± 0.12
14,G9F,-0.926 ± 0.15
15,S38Y,-0.376 ± 0.14
16,V39A,-0.135 ± 0.095
17,C5M,-0.173 ± 0.11
18,M37Y,-0.374 ± 0.2
19,V39Q,0.223 ± 0.12
20,H34D,-0.54 ± 0.24
21,M3N,0.354 ± 0.1
22,L1M,0.148 ± 0.13
23,S31M,-0.989 ± 0.14
